Literature values as cited in PMC9412859 (World Journal of Diabetes, 2022).

Conditions: rats, oral

Substance | plasma exenatide level versus subcutaneous exenatide solution (functionalised NPs) | time of maximum plasma concentration (enteric-coated capsule containing pH responsive NPs) [h]
exenatide: GLP1-RA, here delivered orally in functionalised nanoparticles | not significantly different | –
Exendin-4: GLP1-RA, here released from enteric-coated capsule containing pH responsive NPs | – | 5
